Here are results for one protein from ChEMBL document CHEMBL1143427, “Interactions of ceftobiprole with beta-lactamases from molecular classes A to D” (Antimicrob Agents Chemother, 2007).

Common to all, as to conditions: Enterobacter cloacae
Substrate in series [1]: O=C(Cc1cccs1)N[C@@H]1C(=O)N2C(C(=O)[O-])=C(C[n+]3ccccc3)CS[C@H]12
Description: Activity of Enterobacter cloacae 4080 AmpC (P99) assessed as drug hydrolysis by spectrophotometry
Substrate in series [2]: CC1(C)S[C@@H]2[C@H](NC(=O)Cc3ccccc3)C(=O)N2[C@H]1C(=O)O
Description: (§1) Ratio of Kcat to Km of Enterobacter cloacae 4092 AmpC (E2) assessed as drug hydrolysis by spectrophotometry
Substrate in series [3]: CC(C)(O/N=C(\C(=O)N[C@@H]1C(=O)N2C(C(=O)[O-])=C(C[n+]3ccccc3)CS[C@H]12)c1csc(N)n1)C(=O)O
Description: as §1
Substrate in series [4]: O=C(Cc1cccs1)N[C@@H]1C(=O)N2C(C(=O)[O-])=C(C[n+]3ccccc3)CS[C@H]12
This is another data set of the same source.
Description: as §1

Substrate in series [5]: Nc1nc(/C(=N/O)C(=O)N[C@@H]2C(=O)N3C(C(=O)O)=C(/C=C4\CCN([C@@H]5CCNC5)C4=O)CS[C@H]23)ns1
Description: as §1
Substrate in series [6]: CO/N=C(\C(=O)N[C@@H]1C(=O)N2C(C(=O)[O-])=C(C[N+]3(C)CCCC3)CS[C@H]12)c1csc(N)n1
Description: as §1
Substrate in series [7]: O=C(Cc1cccs1)N[C@@H]1C(=O)N2C(C(=O)O)=C(/C=C/c3ccc([N+](=O)[O-])cc3[N+](=O)[O-])CS[C@H]12
Description: as §1

B1: Beta-lactamase (Enterobacter cloacae), P05364 (protein)
chain: MMRKSLCCALLLGISCSALATPVSEKQLAEVVANTITPLMKAQSVPGMAVAVIYQGKPHYYTFGKADIAANKPVTPQTLFELGSISKTFTGVLGGDAIARGEISLDDAVTRYWPQLTGKQWQGIRMLDLATYTAGGLPLQVPDEVTDNASLLRFYQNWQPQWKPGTTRLYANASIGLFGALAVKPSGMPYEQAMTTRVLKPLKLDHTWINVPKAEEAHYAWGYRDGKAVRVSPGMLDAQAYGVKTNVQDMANWVMANMAPENVADASLKQGIALAQSRYWRIGSMYQGLGWEMLNWPVEANTVVEGSDSKVALAPLPVAEVNPPAPPVKASWVHKTGSTGGFGSYVAFIPEKQIGIVMLANTSYPNPARVEAAYHILEALQ
In the case of B1, the Km in series [1] stood at 330 µM. The kcat in series [1] turned out to be 2500 s⁻¹. For the same protein, the kcat/Km is 7.8e+06 M⁻¹ s⁻¹ in series [2]; 1500 M⁻¹ s⁻¹ in series [3]; 1.5e+06 M⁻¹ s⁻¹ in series [4]; less than 2200 M⁻¹ s⁻¹ in series [5]; less than 33 M⁻¹ s⁻¹ in series [6]; 1e+07 M⁻¹ s⁻¹ in series [7].

By Km is commonly meant the concentration of substrate that gives half-maximal velocity. As usually defined, the kcat is the maximal rate divided by the concentration of active sites. As a reminder, the kcat/Km is the turnover number divided by the Michaelis constant.
